{"source": "patent US20100159475", "key": {"[1]": {"tested_on": "T1, Fluoresceinyl-DLDVPIPGRFDRRVpSVAAE (phosphorylated, fluorescein-tagged RII peptide)", "T1 sequence": "DLDVPIPGRFDRRVSVAAE"}}}
{"substance": "Recombinant calcineurin", "values": [{"measurement": "dephosphorylation by 0.2 ng calcineurin (fluorimetric calcineurin assay)", "setting": "autoinhibitory peptide", "result": "Dephosphorylation by 0.2 ng calcineurin was significantly reduced (ANOVA) by each of these conditions"}, {"measurement": "amount of dephosphorylated peptide in the unbound fraction after titanium oxide (mass spectrometry)", "setting": "[1]", "result": "30-fold increase in the amount of dephosphorylated peptide in the unbound fraction with the addition of recombinant calcineurin"}, {"measurement": "dephosphorylation of the peptide (fluorimetric calcineurin assay)", "setting": "[1]", "result": "Calcineurin in normal buffer resulted in dephosphorylation of the peptide in a dose-dependent manner"}, {"measurement": "relative amount of dephosphorylated to phosphorylated peptide (mass spectrometry)", "setting": "[1]", "result": "recombinant calcineurin stimulated a dose-responsive increase in the relative amount of dephosphorylated to phosphorylated peptide"}]}
